The values that follow come from the supplement of paper PMC10724198.

± gives the standard deviation of the averaged measurements.
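Note: PSI is a weighted mean of sequencing reads over stability bins, variants kept only with over 10 reads, mCherry proximal and sfGFP distal, peptide attached via GGGS linker.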

The test system of this data set is Saccharomyces cerevisiae. The data set is described as follows: protein stability index of tFT-peptide fusion (C-terminal peptide) (PSI (0-1 scale)); higher = more stable (slower turnover). The following applies: genetic background: wild type; temperature: 30 C.
As to KTLVRSFSIIEG, the protein stability index was 0.657 ± 0.026. KTRHRQKDVTTH displayed a protein stability index of 0.713 ± 0.055. For KTRKNNSKKNTK the value was 0.688 ± 0.019; for KTSYDQTLEMGL, 0.62 ± 0.04; for KTTRTGRHTAPN, 0.676 ± 0.028. For KTTVENEQRKEK the value was 0.698 ± 0.079; for KVDRDRTGIHWS, 0.671 ± 0.061; for KVHQHPFLHALS, 0.695 ± 0.012. For KVIKEQNKKIDR the value was 0.641 ± 0.026. Turning to KVNWVKAAKKNA, the protein stability index came to 0.626 ± 0.019. With KVSTWKISRISG the figure was 0.55 ± 0.026.

The sequence KWEGKKINKKRE came in with a protein stability index of 0.699 ± 0.077.

Consider KWGVWLWVGGGG, for which the protein stability index amounted to 0.763 ± 0.056. For KYEKILLTVAPE the value was 0.672 ± 0.019; for KYLPSVVYIYRL, 0.531 ± 0.023; for KYMENQLSYDAD, 0.646 ± 0.051. As to LACGWCVAVYRG, the protein stability index stood at 0.644 ± 0.049. For LAFFAPCLLPPL the value was 0.557 ± 0.048; for LAFFPPPLPPSS, 0.698 ± 0.064; for LAGGGARWGVVR, 0.659 ± 0.033.

Sequence LAGISSNRHLRR had a protein stability index of 0.753 ± 0.067. With LAGRSVVLLWMG the figure was 0.602 ± 0.021; with LALLGPCPPPIH, 0.741 ± 0.083. In turn, LAPLTLLSPLPR yielded a protein stability index of 0.677 ± 0.034. For LAPNPGVLFCGI the value was 0.656 ± 0.044; for LAPPPRPPLAPP, 0.637 ± 0.03; for LAPRPPAPTPTL, 0.603 ± 0.053.

LAPSWVGYVSGH displayed a protein stability index of 0.7 ± 0.069. The sequence LARLTRHSKLGL registered a protein stability index of 0.712 ± 0.066. With LASVYLLLRFSE the figure was 0.5266 ± 0.0012; with LAVVGGVEKKYH, 0.676 ± 0.055; with LAVVSTRCRLEL, 0.694 ± 0.062. With LCDACLSLVFLW the figure was 0.629 ± 0.031; with LCGSSVSHLVLP, 0.7125 ± 0.0054.

In turn, LCPSFAIALSSD showed a protein stability index of 0.692 ± 0.013. With LCRCVFFGLWGV the figure was 0.621 ± 0.031; with LCSLSLCSYSIF, 0.6 ± 0.0053. In turn, LCTYVMFACFFF displayed a protein stability index of 0.641 ± 0.1. For LCYTDMIRGCVF the value was 0.65 ± 0.021; for LDELTRRAEGCG, 0.596 ± 0.008; for LDGGYGRHGVGD, 0.6765 ± 0.00099. For LDIGVADAQRML the value was 0.701 ± 0.14; for LEGTGDRFALCG, 0.659 ± 0.023; for LEIRKKGNKIRE, 0.6 ± 0.041.

Turning to LEKYIKNYINKR, the protein stability index was determined as 0.615 ± 0.016.

In the case of LERTTSNKYEER, the protein stability index came out at 0.7234 ± 0.0061.

LESARDICAFAD yielded a protein stability index of 0.6754 ± 0.005. For LESSAKSRTMVL the value was 0.721 ± 0.014; for LEVFSGNQSVLH, 0.645 ± 0.094. For LFAHSLRLSFAC the value was 0.7054 ± 0.0031.

As to LFALLSGIDRCL, the protein stability index was 0.634 ± 0.012. Take LFAPPACLPSPA: the protein stability index is 0.64 ± 0.014. With LFFGSNLFLLAL the figure was 0.595 ± 0.043; with LFFNLLLFFSFI, 0.488 ± 0.018; with LFFSLSLVVPTG, 0.633 ± 0.095. Regarding LFGAVGGGVEVG, the protein stability index is 0.668 ± 0.12. For LFGVRFTLGYLF the value was 0.554 ± 0.016; for LFLGSFSRSLWP, 0.755 ± 0.015; for LFLLYPRLTLPL, 0.621 ± 0.023. For LFLPLPGPLRSS the value was 0.79 ± 0.13. Sequence LFPAAPAPPPPP yielded a protein stability index of 0.658 ± 0.028.

In the case of LFPAIWPRVLSW, the protein stability index worked out at 0.566 ± 0.02. For LFPRCYFARIVV, the protein stability index was found to be 0.484 ± 0.033.

As to LFSSQAGGRLES, the protein stability index was found to be 0.67 ± 0.019. For LFTFEADKCDLT the value was 0.774 ± 0.092; for LFTSCPPDVRSL, 0.667 ± 0.012; for LFVAFGAAESFE, 0.67 ± 0.098. On to LGAPPPLGLSPS, for which the protein stability index was found to be 0.733 ± 0.019. With LGASPTWGPARS the figure was 0.656 ± 0.016; with LGCVDRMGRVFG, 0.704 ± 0.079; with LGEHHKEQEKNV, 0.654 ± 0.023. With LGEYNRKKKPRI the figure was 0.6446 ± 0.0034; with LGFDRGGGVAGM, 0.674 ± 0.034.

As to LGGERERGRKRG, the protein stability index was 0.672 ± 0.048. With LGGGEGKRVCEG the figure was 0.668 ± 0.017.

In the case of LGGGGVGVGSLV, the protein stability index is 0.679 ± 0.014. For LGGGGWGGACGE the value was 0.66 ± 0.02; for LGGGNVGHSRIW, 0.623 ± 0.073. As to LGGICPLYDLVF, the protein stability index is 0.667 ± 0.076. For LGGLKCGRLADS the value was 0.656 ± 0.041.
